# Patent publication US20230038638A1, “COMPLEMENT FACTOR I-RELATED COMPOSITIONS AND METHODS” (published 2023)
# Numbering of substitutions follows the chain as printed.
# Experiments:
# human C4b (human) [1] = molecular target: T1, human C4b (human) (UniProt P0C0L4)
# T1 sequence: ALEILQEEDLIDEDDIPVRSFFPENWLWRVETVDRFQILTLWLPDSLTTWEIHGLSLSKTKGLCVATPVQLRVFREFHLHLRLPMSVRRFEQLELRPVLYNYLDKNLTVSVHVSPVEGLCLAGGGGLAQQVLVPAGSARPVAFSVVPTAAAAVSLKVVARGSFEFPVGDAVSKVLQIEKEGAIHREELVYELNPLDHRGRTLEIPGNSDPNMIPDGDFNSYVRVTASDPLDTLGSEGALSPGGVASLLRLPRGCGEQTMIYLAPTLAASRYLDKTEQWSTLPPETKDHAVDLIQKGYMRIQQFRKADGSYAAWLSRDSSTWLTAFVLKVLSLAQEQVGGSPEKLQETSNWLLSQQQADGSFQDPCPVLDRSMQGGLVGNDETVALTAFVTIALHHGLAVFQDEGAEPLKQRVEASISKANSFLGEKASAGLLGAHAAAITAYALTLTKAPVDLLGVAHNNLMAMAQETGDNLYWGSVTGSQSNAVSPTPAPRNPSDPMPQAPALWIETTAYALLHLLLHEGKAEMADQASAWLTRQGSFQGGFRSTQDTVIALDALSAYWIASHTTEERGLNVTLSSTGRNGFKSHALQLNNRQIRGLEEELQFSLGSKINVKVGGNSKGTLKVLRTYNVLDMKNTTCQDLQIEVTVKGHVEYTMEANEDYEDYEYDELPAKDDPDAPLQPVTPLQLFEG
# [2] = molecular target: soluble human C3b (human) (UniProt P01024)
# human C4b (human) [3] = molecular target: T2, human C4b (human) (UniProt P0C0L5)
# T2 sequence: T1 sequence with A151T, D317G, P364L, C365S, L368I, D369H, N420S, V451A, L454R, S530A
Substance,iC3b Screen Ref Fold (fold of CFI-HSA wild type) [2],C4b Screen Ref Fold (fold vs CFI-HSA wild type) (human C4b (human) [3]),iC3b Screen Ref Fold (fold vs CFI-HSA wild type) [2],other results
CFI-HSA variant R557A; N531D; Y403F; K504Y; E457G; E461Q (enzyme),0.42,,,C4b Screen Ref Fold (fold of CFI-HSA wild type) (human C4b (human) [1]): 3.51
CFI-HSA Y408L; E530K; N531G (enzyme),1.12,,,C4b Screen Ref Fold (fold of CFI-HSA wild type) (human C4b (human) [1]): 4.89
CFI-HSA H362T; R456I; S343K (enzyme),0,,,C4b Screen Ref Fold (fold of CFI-HSA wild type) (human C4b (human) [1]): 0.18
CFI-HSA variant D425K; Y408M; E530F; F537K; K504R (enzyme),0.02,,,C4b Screen Ref Fold (fold of CFI-HSA wild type) (human C4b (human) [1]): 0.15
CFI-HSA L307S (enzyme),1.54,,,C4b Screen Ref Fold (fold of CFI-HSA wild type) (human C4b (human) [1]): 2.94
CFI-HSA variant P558S (enzyme),,,,C4b Screen Ref Fold (fold of reference) (human C4b (human) [1]): 0.77; iC3b Screen Ref Fold (fold of reference) [2]: 1.56
CFI-HSA variant Y408F; S507A (enzyme),-0.02,,,C4b Screen Ref Fold (fold of CFI-HSA wild type) (human C4b (human) [1]): 0.07
CFI-HSA variant R557A; N531M; Y403F; K504Y; E457N; E461T (enzyme),0.24,,,C4b Screen Ref Fold (fold of CFI-HSA wild type) (human C4b (human) [1]): 3.13
CFI-HSA D549A (enzyme),,1.04,0.66,
CFI-HSA variant G556P; P558G (enzyme),0.68,,,C4b Screen Ref Fold (fold of CFI-HSA wild type) (human C4b (human) [3]): 1.86
CFI-HSA variant F559L; Y563H; V565T (enzyme),0.58,,,C4b Screen Ref Fold (fold of CFI-HSA wild type) (human C4b (human) [3]): 0.55
CFI-HSA N531G; P535A; R557A (enzyme),,3.98,0.57,
CFI-HSA R365F (enzyme),,0.23,0.64,
CFI-HSA variant S552G; V565I; P558S (enzyme),1.32,,,C4b Screen Ref Fold (fold of CFI-HSA wild type) (human C4b (human) [3]): 0.89
CFI-HSA variant A361G (enzyme),,0.84,0.64,
CFI-HSA variant R462D (enzyme),,-0.05,0,
CFI-HSA D501G (enzyme),,-0.01,-0.04,
CFI-HSA variant 514-MDANNVT (SEQ ID NO: 13)-520 --> NG (enzyme),,0.12,0.04,
CFI-HSA H362G (enzyme),,0.03,-0.02,
CFI-HSA R365T (enzyme),,0.96,0.56,
CFI-HSA D549K (enzyme),,1,0.18,
CFI-HSA variant Y553H; F559L; V565I (enzyme),0.76,,,C4b Screen Ref Fold (fold of CFI-HSA wild type) (human C4b (human) [3]): 1.23
CFI-HSA N531G; E457G; E461Q; ΔC-term (Δ558-PFISQYNV (SEQ ID NO: 14)-565) (enzyme),,3.57,0.5,
CFI-HSA variant Δ(K1-P305); Y408L; N531G; E457G; E461Q; R462K; F464Y (enzyme),,0.01,0.03,
CFI-HSA R365K (enzyme),,0.39,1.01,
CFI-HSA Y408L; N531G; D425R; E530Y (enzyme),,2.99,2.08,
CFI-HSA Y408L; E530Y (enzyme),,0.33,1.93,
CFI-HSA R557T (enzyme),,1.63,0.09,

Substance,iC3b Screen Ref Fold (fold of CFI-HSA wild type) [2],C4b Screen Ref Fold (fold vs CFI-HSA wild type) (human C4b (human) [3]),iC3b Screen Ref Fold (fold vs CFI-HSA wild type) [2],other results
CFI-HSA D549Q (enzyme),,1.1,0.84,
CFI-HSA D549T (enzyme),,1.05,1.09,
CFI-HSA variant Δ(S308) (enzyme),,,,C4b Screen Ref Fold (fold relative to CFI-HSA wild type) (human C4b (human) [3]): 0.21; iC3b Screen Ref Fold (fold relative to CFI-HSA wild type) [2]: -0.01
CFI-HSA variant Y408L; N531G; P535G; P558S (enzyme),1.28,,,C4b Screen Ref Fold (fold of CFI-HSA wild type) (human C4b (human) [3]): 1.02
CFI-HSA Y553I (enzyme),,0.51,1.06,
fH_CCP1-4; GGGGSS(9); wt hCFI (enzyme),,0.97,0.66,
CFI-HSA K368G (enzyme),,0.24,0.16,
fH_CCP1-4; GGSS(13); wt hCFI (enzyme),,1.63,0.6,
CFI-HSA R365E (enzyme),,-0.06,0.02,
CFI-HSA E457G; N531G; D425R; E530Y (enzyme),,5.37,0.78,
CFI-HSA Y408L; E457G; E461Q; R462K; N531G; GGSSGG (SEQ ID NO: 6); CR1 (ccp15-17) (from UniProt P17927) (enzyme),,1.84,0.18,
CFI-HSA K423D (enzyme),,0.31,0.33,
CFI-HSA variant Y553F; P558S; F559L (enzyme),0.5,,,C4b Screen Ref Fold (fold of CFI-HSA wild type) (human C4b (human) [3]): 0.6
CFI-HSA R365G (enzyme),,0.35,0.16,
CFI-HSA variant P535G; P558S (enzyme),0.25,,,C4b Screen Ref Fold (fold of CFI-HSA wild type) (human C4b (human) [3]): 0.2
CFI-HSA L76G (enzyme),,0.07,0.5,
CFI-HSA variant Y408L; E457G; P535G; K534Q (enzyme),0.53,,,C4b Screen Ref Fold (fold of CFI-HSA wild type) (human C4b (human) [3]): 1.43
CFI-HSA P535G; E530Y (enzyme),,0.11,0.22,
CFI-HSA variant P535G; K534Q (enzyme),0.24,,,C4b Screen Ref Fold (fold of CFI-HSA wild type) (human C4b (human) [3]): 0.35
CFI-HSA N531G; D425R; E530Y (enzyme),,2.71,2.05,
CFI-HSA variant Y408L; P535G; WT; GGSSGG (SEQ ID NO: 6); CR1(ccp15-17) (from UniProt P17927) (enzyme),0.03,,,C4b Screen Ref Fold (fold of CFI-HSA wild type) (human C4b (human) [3]): 3.01
CFI-HSA variant S507A; GGSSGG (SEQ ID NO: 6); CR1(ccp15-17) (from UniProt P17927) (enzyme),-0.01,,,C4b Screen Ref Fold (fold of CFI-HSA wild type) (human C4b (human) [3]): -0.01
CFI-HSA variant Y408L; P535G; P558S (enzyme),0.24,,,C4b Screen Ref Fold (fold of CFI-HSA wild type) (human C4b (human) [3]): 0.04
fH_CCP1-4; GGSS(11); wt hCFI (enzyme),,1.49,0.69,
CFI-HSA variant S250A; D425R (enzyme),,0.14,1.01,
CFI-HSA E457G; N531G; E461Q; R462K; F464Y; GGSSGG (SEQ ID NO: 6); CR1 (ccp1-3) (from UniProt P17927) (enzyme),,0.46,0.14,
CFI-HSA Y553R (enzyme),,0.78,1.38,
